The target in assay [1] is human IL-18BP (amino acids 31-194), biotinylated (human) (UniProt O95998). Kind of assay: yeast display binding. To be noted: ligand.
Target sequence in this assay (O95998 other isoform, or with tags, fused parts or gaps): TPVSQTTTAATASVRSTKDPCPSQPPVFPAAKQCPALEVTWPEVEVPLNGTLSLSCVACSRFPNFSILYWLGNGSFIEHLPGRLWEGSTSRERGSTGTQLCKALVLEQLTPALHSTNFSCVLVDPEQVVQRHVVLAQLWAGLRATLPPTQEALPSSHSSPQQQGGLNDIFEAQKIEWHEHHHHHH
Assay [2] shares this target. Kind of assay: SPR. On the technique in general: In SPR one partner is held on a chip, and binding of the other changes the refractive index at the surface.
For assay [3] the target is unchanged. Kind of assay: SPR, Biacore T100; hIL-18BP as surface ligand; Exp 1.
Target sequence in this assay (O95998 other isoform, or with tags, fused parts or gaps limits assumed, form in doubt): as the sequence (O95998 other isoform, or with tags, fused parts or gaps) above
Assay [4] shares this target. The assay is described as follows: SPR, Biacore T100; hIL-18BP as surface ligand, IL-18 as analyte.
Target sequence in this assay (O95998 other isoform, or with tags, fused parts or gaps limits assumed, form in doubt): as the sequence (O95998 other isoform, or with tags, fused parts or gaps) above
For assay [5] the target is unchanged. Kind of assay: SPR, Biacore T100; hIL-18BP as surface ligand; Exp 2.
Target sequence in this assay (O95998 other isoform, or with tags, fused parts or gaps limits assumed, form in doubt): as the sequence (O95998 other isoform, or with tags, fused parts or gaps) above
The target is the same in assay [6]. Kind of assay: SPR, Biacore T100.
Target sequence in this assay (O95998 other isoform, or with tags, fused parts or gaps limits assumed, form in doubt): as the sequence (O95998 other isoform, or with tags, fused parts or gaps) above
Assay [7] shares this target. Kind of assay: SPR, biotinylated receptor on streptavidin capture chip, IL-18 as free analyte.
Target sequence in this assay (O95998 other isoform, or with tags, fused parts or gaps limits assumed, form in doubt): as the sequence (O95998 other isoform, or with tags, fused parts or gaps) above
For assay [8] the target is unchanged. The assay is described as follows: SPR, Biacore T100; biotinylated receptor on chip, IL-18 as analyte.
Target sequence in this assay (O95998 other isoform, or with tags, fused parts or gaps limits assumed, form in doubt): as the sequence (O95998 other isoform, or with tags, fused parts or gaps) above
Assay [9] shares this target. Kind of assay: on-yeast binding isotherm, flow cytometry.
Assay [10] has the same target. Kind of assay: SPR, representative sensorgram, immobilized biotinylated hIL-18BP.
The target is the same in assay [11]. The assay is described as follows: SPR; KD IL-18BP / KD IL-18Rα normalized to WT IL-18.
The target is the same in assay [12]. The assay is described as follows: SPR, apparent KD.

wild-type human Interleukin-18 (mature form), sequence (Q14116 37-193): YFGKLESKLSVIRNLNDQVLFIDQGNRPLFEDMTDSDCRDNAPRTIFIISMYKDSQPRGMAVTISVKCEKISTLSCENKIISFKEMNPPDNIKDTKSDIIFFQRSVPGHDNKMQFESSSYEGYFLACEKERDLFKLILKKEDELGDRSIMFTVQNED

For “wild-type human Interleukin-18 (mature form) (from UniProt Q14116 37-193)”, the Kd worked out at 2.1 nM in assay [1] and 0.6 nM in assay [2] (ligand).

“human decoy-to-the-decoy (D2D) IL-18 consensus variant SEQ ID NO: 124 (from UniProt Q14116 37-193)” came in with a Kd in assay [1] of 7.9 nM.

For orientation: koff means the rate constant with which the complex falls apart. Read a high koff as a short-lived complex. In general, kon refers to the second-order rate constant of association. A higher kon goes with faster complex formation. “wild-type human Interleukin-18 (mature form) (from UniProt Q14116 37-193) (ligand)”: the Kd in assay [3] is 0.000694 nM; in [5], 0.00043 nM; in assay [7] it was under 1 nM; in assay [8] it was 0.0019 nM; in assay [9], 7.08 nM; in [10], 0.002 nM. In addition, the values for the Kd in assay [12] and in assay [2] were under 0.1 nM and 0.002 nM, respectively. Also, in assay [4], the koff was found to be 2.23e-07 s⁻¹. The kon in assay [4] is 518000 M⁻¹ s⁻¹. The Dissociation Constant Ratio normalized to WT IL-18 in assay [6] and in assay [9] was 1 each time. Also, the KD ratio IL-18BP/IL-18Rα came to 0.000648 in assay [6] and 0.295 in assay [9]. Also, in assay [11], the IL-18 BP:Rα Dissociation Constant Ratio was determined as 1.

In [1], “human decoy-to-the-decoy (D2D) IL-18 variant SEQ ID NO: 94 (from UniProt Q14116 38-193)” gave a Kd of 6.4 nM.

Consider “human decoy-to-the-decoy (D2D) IL-18 variant SEQ ID NO: 101 (from UniProt Q14116 37-193)”, for which the Kd in [1] turned out to be 8.8 nM.

With “human decoy-to-the-decoy (D2D) IL-18 variant SEQ ID NO: 98 (from UniProt Q14116 38-193)”, the Kd in assay [1] came to 5.4 nM.

Consider “human decoy-to-the-decoy (D2D) IL-18 consensus variant SEQ ID NO: 125 (from UniProt Q14116 37-193)”, for which the Kd in [1] came to 8.9 nM.

As to “human decoy-to-the-decoy (D2D) IL-18 variant SEQ ID NO: 120 (from UniProt Q14116 37-193)”, in assay [1], the Kd was determined as 4.2 nM.

For the substance “human decoy-to-the-decoy (D2D) IL-18 consensus variant SEQ ID NO: 123 (from UniProt Q14116 37-193)”, the Kd in [1] worked out at 5.9 nM.

In assay [1], “human decoy-to-the-decoy (D2D) IL-18 variant SEQ ID NO: 99 (from UniProt Q14116 38-193)” registered a Kd of 4.8 nM.

For the origin of these results see patent US20240066100A1.
